These results are taken from patent US20240010684A1 (Bayer, published 2024).

Assay in all cases: cell-based or functional assay
Experiment [1] deals with T1, recombinant human MASP1 (amino acids 297-699, C-terminal His Tag) (human, UniProt P48740 297-699).
T1 sequence: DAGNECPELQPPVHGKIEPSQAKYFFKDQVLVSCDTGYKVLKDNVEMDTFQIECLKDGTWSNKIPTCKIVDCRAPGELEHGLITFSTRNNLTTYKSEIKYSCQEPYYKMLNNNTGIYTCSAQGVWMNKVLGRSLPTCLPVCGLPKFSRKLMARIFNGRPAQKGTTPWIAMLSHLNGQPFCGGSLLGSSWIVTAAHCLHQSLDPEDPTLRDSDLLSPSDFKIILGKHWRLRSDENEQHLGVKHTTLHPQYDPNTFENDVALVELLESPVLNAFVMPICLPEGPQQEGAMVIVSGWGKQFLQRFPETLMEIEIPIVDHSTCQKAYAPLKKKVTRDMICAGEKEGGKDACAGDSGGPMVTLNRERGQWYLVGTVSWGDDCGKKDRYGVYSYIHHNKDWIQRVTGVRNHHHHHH

The target in experiment [2] is T2, recombinant human MASP2 (amino acids 297-686, C-terminal His Tag) (human, UniProt O00187 297-686).
Experiment [3] addresses T3, recombinant rat MASP1 (amino acids 302-704, C-terminal His Tag) (rat, UniProt Q8CHN8 302-704).
T3 sequence: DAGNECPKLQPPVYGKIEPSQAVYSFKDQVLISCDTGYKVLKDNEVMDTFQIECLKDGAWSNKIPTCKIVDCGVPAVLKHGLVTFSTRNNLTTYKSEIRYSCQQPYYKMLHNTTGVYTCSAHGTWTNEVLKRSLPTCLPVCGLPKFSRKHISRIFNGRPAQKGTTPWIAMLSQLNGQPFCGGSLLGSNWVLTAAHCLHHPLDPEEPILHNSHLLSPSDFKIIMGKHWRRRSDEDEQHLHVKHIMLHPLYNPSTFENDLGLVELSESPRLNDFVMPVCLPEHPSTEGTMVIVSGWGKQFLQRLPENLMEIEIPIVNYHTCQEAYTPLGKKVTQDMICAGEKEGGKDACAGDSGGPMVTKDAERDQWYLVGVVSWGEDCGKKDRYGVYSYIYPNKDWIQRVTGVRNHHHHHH

For experiment [4], the target named is T4, recombinant rat MASP2 (amino acids 296-685, C-terminal His Tag) (rat, UniProt Q9JJS8 296-685).
In experiment [5] the target is T1, recombinant human MASP1 (amino acids …). This is another data set of the same source.
Experiment [6] has as its target T2, recombinant human MASP2 (amino acids …). The source holds these as a separate data set.
In experiment [7] the target is T3, recombinant rat MASP1 (amino acids …). The source holds these as a separate data set.
Experiment [8] addresses T4, recombinant rat MASP2 (amino acids …). This is another data set of the same source.

Where two headings read alike, the source gives them in different places. Bridges are numbered along the chain shown (N, C = ends). [ ]: non-standard residue; d: D form. tBuAla = CC(C)(C)C[C@H](N)C(=O)O; Pen = CC(C)(S)[C@H](N)C(=O)O; Ahx = NCCCCCC(=O)O; Sar = CNCC(=O)O

T4 sequence (Q9JJS8 other isoform, or with tags, fused parts or gaps limits assumed): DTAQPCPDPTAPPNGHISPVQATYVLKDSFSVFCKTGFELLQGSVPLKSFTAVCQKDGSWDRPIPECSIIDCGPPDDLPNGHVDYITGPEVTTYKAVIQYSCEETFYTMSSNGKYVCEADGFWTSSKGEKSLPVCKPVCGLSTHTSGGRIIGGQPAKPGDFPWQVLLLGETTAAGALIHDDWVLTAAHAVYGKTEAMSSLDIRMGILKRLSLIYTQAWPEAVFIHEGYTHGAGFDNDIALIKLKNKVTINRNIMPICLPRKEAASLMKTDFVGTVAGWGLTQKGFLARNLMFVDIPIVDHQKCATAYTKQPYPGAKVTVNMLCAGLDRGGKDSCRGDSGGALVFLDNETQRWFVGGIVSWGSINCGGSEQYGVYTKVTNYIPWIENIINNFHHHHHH
T2 sequence (O00187 other isoform, or with tags, fused parts or gaps limits assumed): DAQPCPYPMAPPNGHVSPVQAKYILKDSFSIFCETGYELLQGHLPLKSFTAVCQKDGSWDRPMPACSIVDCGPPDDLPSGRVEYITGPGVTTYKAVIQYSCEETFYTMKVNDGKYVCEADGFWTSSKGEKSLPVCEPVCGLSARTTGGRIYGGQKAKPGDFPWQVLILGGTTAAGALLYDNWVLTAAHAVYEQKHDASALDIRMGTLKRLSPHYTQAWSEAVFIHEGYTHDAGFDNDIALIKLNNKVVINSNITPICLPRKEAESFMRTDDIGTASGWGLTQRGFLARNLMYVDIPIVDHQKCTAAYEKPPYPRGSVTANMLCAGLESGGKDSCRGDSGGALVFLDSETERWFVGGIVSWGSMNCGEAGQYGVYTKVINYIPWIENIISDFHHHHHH

B1: Bicyclic SFMI-1: G**IC+SRSLPPIC+IPD** (peptide)
peptide: cyclo(GICSRSLPPICIPD)
modifications: disulfide 3-11
SMILES: CC[C@H](C)[C@@H]1NC(=O)CNC(=O)[C@H](CC(=O)O)NC(=O)[C@@H]2CCCN2C(=O)[C@H]([C@@H](C)CC)NC(=O)[C@@H]2CSSC[C@H](NC1=O)C(=O)N[C@@H](CO)C(=O)N[C@@H](CCCNC(=N)N)C(=O)N[C@@H](CO)C(=O)N[C@@H](CC(C)C)C(=O)N1CCC[C@H]1C(=O)N1CCC[C@H]1C(=O)N[C@@H]([C@@H](C)CC)C(=O)N2
For B1, the “human MASP1 IC50” value in experiment [1] is 145 nM. In addition, the “human MASP2 IC50” value in experiment [2] was 895 nM. For the same molecule, the “rat MASP1 IC50” value in experiment [3] was found to be 1000 nM. Further, the “rat MASP2 IC50” value in experiment [4] is 232 nM.

B2: Reference peptide 12: P**FC+IPPISKTC+RGD** (peptide)
peptide: cyclo(PFCIPPISKTCRGD)
modifications: disulfide 3-11
SMILES: CC[C@H](C)[C@@H]1NC(=O)[C@@H]2CCCN2C(=O)[C@@H]2CCCN2C(=O)[C@H]([C@@H](C)CC)NC(=O)[C@@H]2CSSC[C@H](NC(=O)[C@H]([C@@H](C)O)NC(=O)[C@H](CCCCN)NC(=O)[C@H](CO)NC1=O)C(=O)N[C@@H](CCCNC(=N)N)C(=O)NCC(=O)N[C@@H](CC(=O)O)C(=O)N1CCC[C@H]1C(=O)N[C@@H](Cc1ccccc1)C(=O)N2
Consider B2, for which, in experiment [1], the “human MASP1 IC50” value is 4800 nM. In addition, in experiment [2], the “human MASP2 IC50” value turned out to be 5000 nM. In experiment [3], the “rat MASP1 IC50” value was 1000 nM. Besides, the “rat MASP2 IC50” value in experiment [4] was 1000 nM.
cyclo([Ahx]AICSRS[tBuAla]PPI[Pen]IP) (disulfide 4-12; also: TFA salt) [Example 53: (Ahx)**-AIC+SRS-((tBu)A)-PPI-(Pen)+-IP**]: the “human MASP1 IC50” value in experiment [5] is 6.75 nM. The “human MASP2 IC50” value in experiment [6] turned out to be 83.5 nM. Moreover, the “rat MASP1 IC50” value in experiment [7] is 96 nM. For the same molecule, the “rat MASP2 IC50” value in experiment [8] was 19 nM.

B3: Bicyclic SFMI-2: G**YC+SRSYPPVC+IPD** (peptide)
peptide: cyclo(GYCSRSYPPVCIPD)
modifications: disulfide 3-11
SMILES: CC[C@H](C)[C@@H]1NC(=O)[C@@H]2CSSC[C@H](NC(=O)[C@H](Cc3ccc(O)cc3)NC(=O)CNC(=O)[C@H](CC(=O)O)NC(=O)[C@@H]3CCCN3C1=O)C(=O)N[C@@H](CO)C(=O)N[C@@H](CCCNC(=N)N)C(=O)N[C@@H](CO)C(=O)N[C@@H](Cc1ccc(O)cc1)C(=O)N1CCC[C@H]1C(=O)N1CCC[C@H]1C(=O)N[C@@H](C(C)C)C(=O)N2
As for B3, the “human MASP1 IC50” value in experiment [1] is 8130 nM. Moreover, the “rat MASP1 IC50” value in experiment [3] amounted to 1000 nM. In addition, the “rat MASP2 IC50” value in experiment [4] was determined as 126 nM.
Turning to cyclo(AGGICSRS[tBuAla]PPI[Pen]IP[dD]) (disulfide 5-13; also: TFA salt) [Example 39: A**GGIC+SRS-((tBu)A)-PPI-(Pen)+-IPd**], in experiment [5], the “human MASP1 IC50” value is 6 nM. Besides, the “human MASP2 IC50” value in experiment [6] amounted to 75 nM. Further, the “rat MASP1 IC50” value in experiment [7] amounted to 44 nM. Besides, the “rat MASP2 IC50” value in experiment [8] was 8 nM.
The corresponding values for cyclo([Ahx]ICSRS[tBuAla]PPI[Pen]I) (disulfide 3-11; also: TFA salt) [Example 52: (Ahx)**-IC+SRS-((tBu)A)-PPI-(Pen)+-I**] are 7.9 nM, 9.3 nM, 79 nM and 11.6 nM.
Take cyclo([Ahx][Sar]ICSRS[tBuAla]PPI[Pen]IP) (disulfide 4-12; also: TFA salt) [Example 54: (Ahx)**-((N-Me)G)-IC+SRS-((tBu)A)-PPI-(Pen)+-IP**]: the “human MASP1 IC50” value in experiment [5] was determined as 8.5 nM. Also, the “human MASP2 IC50” value in experiment [6] worked out at 33 nM. The “rat MASP1 IC50” value in experiment [7] worked out at 180 nM. For the same molecule, in experiment [8], the “rat MASP2 IC50” value is 18 nM.
With cyclo(ICSRS[tBuAla]PPI[Pen]IPP) (disulfide 2-10; also: TFA salt) [Example 58: I**C+SRS-((tBu)A)-PPI-(Pen)+-IPP**], in experiment [5], the “human MASP1 IC50” value was 9 nM. Further, the “human MASP2 IC50” value in experiment [6] came out at 650 nM. In experiment [7], the “rat MASP1 IC50” value was determined as 110 nM. In addition, the “rat MASP2 IC50” value in experiment [8] was 46 nM.
cyclo([Ahx]GICSRS[tBuAla]PPI[Pen]IPD) (disulfide 4-12; also: TFA salt) [Example 28: (Ahx)**-GIC+SRS-((tBu)A)-PPI-(Pen)+-IPD**]: in experiment [5], the “human MASP1 IC50” value turned out to be 19 nM. In addition, in experiment [6], the “human MASP2 IC50” value was 29 nM. For the same molecule, the “rat MASP1 IC50” value in experiment [7] was found to be 79 nM. The “rat MASP2 IC50” value in experiment [8] worked out at 16 nM.
